Test results taken from publication PMC5672839, “A novel peptide stapling strategy enables the retention of ring-closing amino acid side chains for the Wnt/β-catenin signalling pathway” (Chemical Science, 2017).
Starred links: 1 amine or outer side, 2 acyl side, 3 side chain; linkers in the order of their positions; H or OH if unused. Positions of bridges follow the written chain, without caps; N, C: chain ends. Non-standard residues stand in square brackets, D forms with d. Residues, ends and D or L forms follow the SMILES beside them. *: point of attachment. FITC = O=C1OC2(c3ccc(O)cc3Oc3cc(O)ccc32)c2ccc(NC(=S)*)cc21; X2 = CC(C)C[C@](CCCC=[*:3])(N[*:1])C(=O)[*:2]; X6 = NCCCC[C@](CCCC=[*:3])(N[*:1])C(=O)[*:2]; X1 = CSCC[C@](CCCC=[*:3])(N[*:1])C(=O)[*:2]; X3 = O=C([C@@](CO)(CCCC=[*:3])N[*:1])[*:2]; X5 = C=CCCC[C@@](CC(C)C)(N[*:1])C(=O)[*:2]; X4 = C=CCCC[C@@](CCSC)(N[*:1])C(=O)[*:2]; R5 = C=CCCC[C@@](C)(N)C(=O)O; S5 = C=CCCC[C@](C)(N)C(=O)O; βAla = NCCC(=O)O

Tests used:
circular dichroism = conditions: 10 mM phosphate buffer (captions say PBS); pH 7.4; 25 °C; 50 uM
[1] = Circular dichroism (CD) analysis, percent helicity from [θ]222; format: physicochemical; conditions: peptide 50 μM in phosphate buffer (10 mM, pH 7.4), 25 °C, 1 mm cuvette, calculated from [θ]222
Description: (§1) Con = non-specific control. […] Scale bar: 50 μm.
(§2) The CD spectra were obtained with
(§3) The measurement parameters
(§4) background subtraction. The curves were smoothed using standard parameters. In addition,
(§5) Figure S3. CD spectra of all peptides.
(§6) concentration of 50 μM. The percent helicity was calculated based on the [θ] 222 value.

[2] = tested on: Wnt/β-catenin dependent transcriptional activity; assay: Topflash-luciferase reporter, Wnt3a-induced expression; format: cell-based; conditions: Wnt3a conditioned medium, peptide 40 μM, 12 h; for Wnt3a-induced Topflash reporter expression, comparison in words: HEK293T cells transfected with Topflash-luciferase
Excerpt: We next explored the effects of these peptides on Wnt/β-catenin dependent transcriptional activity. The Topflash reporter, in which firefly luciferase is transcriptionally activated by β-catenin, was employed. […] Con = non-specific control. […] Scale bar: 50 μm.

in vitro = conditions: isolated enzyme chymotrypsin, pH 7.4
HEK 293T/17 cells = assay: Cell permeability of FITC-labelled peptides by confocal microscopy; format: cell-based; conditions: FITC–β-Ala–peptide 40 μM (supplement: 10 µM), 16 h, washed with PBS twice, fixed, confocal fluorescence microscopy
Excerpt: as §1
We then assessed the cell permeability of the peptides by conjugating fluorescein isothiocyanate (FITC) to Axin (469–482), WNT-3a and WNT-3c (Fig. 3d). […] To explore the detailed binding mode of WNT-3a against β-catenin, we conducted a Z-dock of the WNT-3a–β-catenin complex to predict structural models of the protein–protein complexes.[27] […] Owing to an introduction of the stapling group, Met-481 is closer to the Trp-338 of β-catenin, and thus forms a stronger interaction with that residue. In addition, a stronger salt bridge between the side chain carboxyl group of Asp-474 coordinated with the amino group of β-catenin Lys-292 and a more efficient hydrogen bond between the side chain of His-476 and β-catenin Asp-299 are constructed because of a closer distance geometrically. It is conceivable that these changes enhanced the conformational stability of WNT-3a in its bound state, thereby contributing to the improved binding activity.
as §2, §3, §4, §5, §6

α-chymotrypsin = α-chymotrypsin (Bos taurus, UniProt P00766); assay: Proteolytic stability towards α-chymotrypsin; conditions: α-chymotrypsin 5 ng μL^–1 (supplement: 0.5 ng/µL) in 50 mM PBS pH 7.4 with 2 mM CaCl2, peptide 0.1 mM final, room temperature, 1 h, analytical HPLC, duplicate independent experiments

Molecule	helicity (circular dichroism)	also measured
CC[C@H](C)[C@H](NC(=O)[C@H](CO)NC(=O)[C@H](CCC(=O)O)NC(=O)[C@@H]1CCCN1C(C)=O)C(=O)N[C@@H](CC(C)C)C(=O)N[C@@H](CC(=O)O)C(=O)N[C@@H](CCC(=O)O)C(=O)N[C@@H](Cc1c[nH]cn1)C(=O)N[C@]1(C)CCCC=CCCC[C@](C)(C(=O)N[C@@H](CCCCN)C(N)=O)NC(=O)[C@H](C(C)C)NC(=O)[C@H](CCCNC(=N)N)NC(=O)[C@H](CCC(N)=O)NC1=O (Ac-PESILDEH[R5]QRV[R5]K-NH2; staple 9-13)	35.4%	–
CC[C@H](C)[C@H](NC(=O)[C@H](CO)NC(=O)[C@H](CCC(=O)O)NC(=O)[C@@H]1CCCN1C(C)=O)C(=O)N[C@]1(CC(C)C)CCCC=CCCC[C@@](C)(C(=O)N[C@H](C(=O)N[C@@H](CCC(N)=O)C(=O)N[C@@H](CCCNC(=N)N)C(=O)N[C@H](C(=O)N[C@@H](CCSC)C(=O)N[C@@H](CCCCN)C(N)=O)C(C)C)C(C)C)NC(=O)[C@H](CCC(=O)O)NC(=O)[C@H](CC(=O)O)NC1=O [WNT-6a] (Ac-PESI[X2]DE[S5]VQRVMK-NH2; staple 5-8)	70.9%	α-Helicity [1]: 70.87%; Wnt3a-induced Topflash reporter expression, comparison in words [2]: enhanced the Wnt3a-induced reporter expression more effectively than Axin (469–482); fold enhancement of Wnt3a-induced reporter expression ([2]; HEK293T cells, Topflash-luciferase, compared with Axin (469–482)): three-fold enhancement
CC[C@H](C)[C@@H]1NC(=O)[C@](CO)(NC(=O)[C@H](CCC(=O)O)NC(=O)[C@@H]2CCCN2C(C)=O)CCCC=CCCC[C@@](C)(C(=O)N[C@@H](CCC(=O)O)C(=O)N[C@@H](Cc2c[nH]cn2)C(=O)N[C@H](C(=O)N[C@@H](CCC(N)=O)C(=O)N[C@@H](CCCNC(=N)N)C(=O)N[C@H](C(=O)N[C@@H](CCSC)C(=O)N[C@@H](CCCCN)C(N)=O)C(C)C)C(C)C)NC(=O)[C@H](CC(C)C)NC1=O (Ac-PE[X3]IL[S5]EHVQRVMK-NH2; staple 3-6)	51.3%	–
C=CCCC[C@@](CC(C)C)(NC(=O)[C@@H](NC(=O)[C@H](CO)NC(=O)[C@H](CCC(=O)O)NC(=O)[C@@H]1CCCN1C(C)=O)[C@@H](C)CC)C(=O)N[C@@H](CC(=O)O)C(=O)N[C@@H](CCC(=O)O)C(=O)N[C@@H](Cc1c[nH]cn1)C(=O)N[C@](C)(CCCC=C)C(=O)N[C@@H](CCC(N)=O)C(=O)N[C@@H](CCCNC(=N)N)C(=O)N[C@H](C(=O)N[C@@H](CCSC)C(=O)N[C@@H](CCCCN)C(N)=O)C(C)C (Ac-PESI[X5]DEH[R5]QRVMK-NH2)	21.6%	–
Ac-PESILDEHVQRVMK-NH2 [Axin (469–482)]	19.6%	half-life at 0.1 mM (in vitro): 9 min
CC[C@H](C)[C@H](NC(=O)[C@H](CO)NC(=O)[C@H](CCC(=O)O)NC(=O)[C@@H]1CCCN1C(C)=O)C(=O)N[C@@H](CC(C)C)C(=O)N[C@@H](CC(=O)O)C(=O)N[C@@H](CCC(=O)O)C(=O)N[C@@H](Cc1c[nH]cn1)C(=O)N[C@H](C(=O)N[C@@H](CCC(N)=O)C(=O)N[C@@]1(C)CCCC=CCCC[C@](CCCCN)(C(N)=O)NC(=O)[C@H](CCSC)NC(=O)[C@H](C(C)C)NC1=O)C(C)C [WNT-8a] (Ac-PESILDEHVQ[S5]VM[X6]-NH2; staple 11-14)	–	Wnt3a-induced Topflash reporter expression, comparison in words [2]: enhanced the Wnt3a-induced reporter expression more effectively than Axin (469–482)
CC[C@H](C)[C@@H]1NC(=O)[C@](C)(NC(=O)[C@H](CCC(=O)O)NC(=O)[C@@H]2CCCN2C(C)=O)CCCC=CCCC[C@@](C)(C(=O)N[C@@H](CCC(=O)O)C(=O)N[C@@H](Cc2c[nH]cn2)C(=O)N[C@H](C(=O)N[C@@H](CCC(N)=O)C(=O)N[C@@H](CCCNC(=N)N)C(=O)N[C@H](C(=O)N[C@@H](CCSC)C(=O)N[C@@H](CCCCN)C(N)=O)C(C)C)C(C)C)NC(=O)[C@H](CC(C)C)NC1=O (Ac-PE[R5]IL[S5]EHVQRVMK-NH2; staple 3-6)	40%	–
CC[C@H](C)[C@@H]1NC(=O)[C@](CO)(NC(=O)[C@H](CCC(=O)O)NC(=O)[C@@H]2CCCN2C(C)=O)CCCC=CCCC[C@](C)(C(=O)N[C@@H](Cc2c[nH]cn2)C(=O)N[C@H](C(=O)N[C@@H](CCC(N)=O)C(=O)N[C@@H](CCCNC(=N)N)C(=O)N[C@H](C(=O)N[C@@H](CCSC)C(=O)N[C@@H](CCCCN)C(N)=O)C(C)C)C(C)C)NC(=O)[C@H](CC(=O)O)NC(=O)[C@H](CC(C)C)NC1=O (Ac-PE[X3]ILD[R5]HVQRVMK-NH2; staple 3-7)	24.8%	–
CC[C@H](C)[C@H](NC(=O)[C@H](CO)NC(=O)[C@H](CCC(=O)O)NC(=O)[C@@H]1CCCN1C(=O)CCNC(=S)Nc1ccc2c(c1)C(=O)OC21c2ccc(O)cc2Oc2cc(O)ccc21)C(=O)N[C@@H](CC(C)C)C(=O)N[C@@H](CC(=O)O)C(=O)N[C@@H](CCC(=O)O)C(=O)N[C@@H](Cc1c[nH]cn1)C(=O)N[C@H](C(=O)N[C@@H](CCC(N)=O)C(=O)N[C@@H](CCCNC(=N)N)C(=O)N[C@H](C(=O)N[C@@H](CCSC)C(=O)N[C@@H](CCCCN)C(N)=O)C(C)C)C(C)C [FITC–β-Ala–Axin (469–482)] ({FITC-βAla}-PESILDEHVQRVMK-NH2)	–	cell permeability (HEK 293T/17 cells): also penetrated the cell membrane
CC[C@H](C)[C@H](NC(=O)[C@H](CO)NC(=O)[C@H](CCC(=O)O)NC(=O)[C@@H]1CCCN1C(C)=O)C(=O)N[C@@H](CC(C)C)C(=O)N[C@@H](CC(=O)O)C(=O)N[C@@H](CCC(=O)O)C(=O)N[C@@H](Cc1c[nH]cn1)C(=O)N[C@]1(C)CCCC=CCCC[C@](CCSC)(C(=O)N[C@@H](CCCCN)C(N)=O)NC(=O)[C@H](C(C)C)NC(=O)[C@H](CCCNC(=N)N)NC(=O)[C@H](CCC(N)=O)NC1=O [WNT-3a] (Ac-PESILDEH[R5]QRV[X1]K-NH2; staple 9-13)	42.3%	degradation by α-chymotrypsin (α-chymotrypsin): completely stable and no degradation was observed even after 1 h
CC[C@H](C)[C@H](NC(=O)[C@H](CO)NC(=O)[C@H](CCC(=O)O)NC(=O)[C@@H]1CCCN1C(C)=O)C(=O)N[C@]1(C)CCCC=CCCC[C@@](C)(C(=O)N[C@H](C(=O)N[C@@H](CCC(N)=O)C(=O)N[C@@H](CCCNC(=N)N)C(=O)N[C@H](C(=O)N[C@@H](CCSC)C(=O)N[C@@H](CCCCN)C(N)=O)C(C)C)C(C)C)NC(=O)[C@H](CCC(=O)O)NC(=O)[C@H](CC(=O)O)NC1=O (Ac-PESI[R5]DE[S5]VQRVMK-NH2; staple 5-8)	36.8%	–
CC[C@H](C)[C@H](NC(=O)[C@H](CO)NC(=O)[C@H](CCC(=O)O)NC(=O)[C@@H]1CCCN1C(C)=O)C(=O)N[C@@H](CC(C)C)C(=O)N[C@@H](CC(=O)O)C(=O)N[C@@H](CCC(=O)O)C(=O)N[C@@H](Cc1c[nH]cn1)C(=O)N[C@@]1(C)CCCC=CCCC[C@@](C)(C(=O)N[C@@H](CCCCN)C(N)=O)NC(=O)[C@H](C(C)C)NC(=O)[C@H](CCCNC(=N)N)NC(=O)[C@H](CCC(N)=O)NC1=O (Ac-PESILDEH[S5]QRV[S5]K-NH2; staple 9-13)	64.7%	–
C=CCCC[C@@](CCSC)(NC(=O)[C@@H](NC(=O)[C@H](CCCNC(=N)N)NC(=O)[C@](C)(CCCC=C)NC(=O)[C@@H](NC(=O)[C@H](Cc1c[nH]cn1)NC(=O)[C@H](CCC(=O)O)NC(=O)[C@H](CC(=O)O)NC(=O)[C@H](CC(C)C)NC(=O)[C@@H](NC(=O)[C@H](CO)NC(=O)[C@H](CCC(=O)O)NC(=O)[C@@H]1CCCN1C(C)=O)[C@@H](C)CC)C(C)C)C(C)C)C(=O)N[C@@H](CCCCN)C(N)=O (Ac-PESILDEHV[S5]RV[X4]K-NH2)	49.9%	–
